Assay results from patent publication US20100136539A1.

Tests used:
Ezrin (human) [1] = target: Ezrin (human) (UniProt P15311); experiment: Vidas sandwich ELISA, 1/50 Caco2 lysate; negative control as capture, detection 4A7A6C1-biotin
Ezrin (human) [2] = target: Ezrin (human) (UniProt P15311); experiment: Vidas sandwich ELISA, 1/50 Caco2 lysate; negative control as capture, detection 4G11B5-biotin

Sequence of UniProt P15311 (P15311 whole entry): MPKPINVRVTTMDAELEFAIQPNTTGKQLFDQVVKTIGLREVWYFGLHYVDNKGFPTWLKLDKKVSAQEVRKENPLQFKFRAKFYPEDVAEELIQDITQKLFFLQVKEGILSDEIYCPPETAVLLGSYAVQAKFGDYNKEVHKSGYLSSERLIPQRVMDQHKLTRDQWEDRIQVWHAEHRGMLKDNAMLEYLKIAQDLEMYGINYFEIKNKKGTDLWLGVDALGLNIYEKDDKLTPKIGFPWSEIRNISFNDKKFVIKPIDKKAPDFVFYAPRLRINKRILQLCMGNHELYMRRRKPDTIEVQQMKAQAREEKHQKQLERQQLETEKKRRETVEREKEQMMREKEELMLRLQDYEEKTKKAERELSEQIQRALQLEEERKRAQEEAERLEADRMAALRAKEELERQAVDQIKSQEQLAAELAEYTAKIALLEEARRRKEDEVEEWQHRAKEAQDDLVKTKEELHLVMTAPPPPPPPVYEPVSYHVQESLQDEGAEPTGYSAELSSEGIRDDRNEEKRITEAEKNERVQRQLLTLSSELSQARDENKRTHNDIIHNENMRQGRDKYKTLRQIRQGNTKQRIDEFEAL

Vidas sandwich immunoassay signal (Ezrin (human) [1]): 3 RFV
Vidas sandwich immunoassay signal (Ezrin (human) [2]): 2.5 RFV
Substance: Negative control
